# B1: recombinant wild-type Equ c 1 allergen (other)
# chain: QQEENSDVAIRNFDISKISGEWYSIFLASDVKEKIEENGSMRVFVDVIRALDNSSLYAEYQTKVNGECTEFPMVFDKTEEDGVYSLNYDGYNVFRISEFENDEHIILYLVNFDKDRPFQLFEFYAREPDVSPEIKEEFVKIVQKRGIVKENIIDLTKIDRCFQLRGNGVAQA
# notes: Reported to exist mainly as a dimer at 40 uM; also called rEqu c 1 wt; wt rEqu c 1
# Target: the molecule itself
# Assay: native ESI FT-ICR mass spectrometry, 40 uM in 10 mM ammonium acetate (self-association)
# Experimental: The mass spectrometric experiments were performed with a 12T solariX XR mass spectrometer (Bruker Daltonics, Billerica, Mass., USA), equipped with an Apollo II ion funnel electrospray source. Before a mass spectrometric analysis, the protein sample was exchanged into an ESI-MS compatible ammonium acetate buffer (10 mM, pH 6.9) by using disposable PD-10 desalting columns (GE Healthcare). For mass spectrometric measurements in denaturing solution conditions, protein sample was diluted to 0.2 μM with acetonitrile/water/acetic acid solution. The protein solution was directly infused into the ion source by a syringe pump with a flow rate of […]. The temperature of the drying gas was 200° C. and the pressure of the nebulizing gas was 1.0 bar. Mass spectra were acquired in the positive ion mode over the m/z range of 800-3000 with 1-Mword time-domain transients and 0.05 sec ion accumulation. […] Desalted protein samples were usually measured at a concentration of 40 μM in 10 mM ammonium acetate buffer. Typically, 100 co-added 256-kword time-domain transients were recorded and processed to 512-kword data prior to fast Fourier transform and frequency to mass conversion. The wild-type Equ c 1 allergen and the Equ c 1 mutants were measured using the same instrumental parameters, in order to avoid any bias between the protein samples. […]
protein,measurement,value
B1,binding result,binds

# — patent US20200345839A1 (DESENTUM, published 2020)
